Source: PMC10592267

Target: poplar cellulose synthase isoform-8 (CesA8) from hybrid aspen (hybrid aspen (poplar))
Test: cryo-EM structure; purified CesA8 in 0.02% GDN, incubated with 20 mM MgCl2 and 5 mM UDP or UDP-Glc for 30 min on ice before grid preparation; non-uniform refinement with C3 symmetry

- stoichiometry N: 3
Substance: poplar cellulose synthase isoform-8 (CesA8) from hybrid aspen (enzyme)
